Laboratory results from patent US20130316374A1, “BREAST CANCER DIAGNOSTICS” (IMBA - INSTITUT FUR MOLEKULARE BIOTECHNOLOGIE GMBH, priority 2010, published 2013).
Entries after “also recorded” stand apart in the source; their conditions may differ.

Experiments:
[1] = system: NFκB pathway, CyclinD1; assay: NFκB pathway activation and CyclinD1 expression in mammary epithelial cells after MPA; type: in vivo, mouse; settings: three day MPA treatment
Excerpt: a, Activation of the NFκB pathway and CyclinD1 expression by MPA. Nulliparous RANK^Δmam and littermate control females were s.c. implanted with slow-release MPA pellets or treated with sham surgery. a, In situ immunostaining to detect phosphorylated (P) IκBα in mammary epithelial cells of RANK^Δmam and littermate control females after 3d MPA treatment. b, Western blot analysis of CyclinD1 and RANKL in isolated mammary epithelial cells from RANK^Δmam and littermate control females after 3d MPA treatment. Recombinant, murine sRANKL protein is shown for molecular size comparison. β-actin is shown as a loading control.
RANKL-RANK signaling via IKKα-NFκB-CyclinD1 in mammary epithelial cells is illustrated in FIG. 11a. […] To directly show whether RANK mediates NFκB-CyclinD1 activation downstream of progestins in vivo, mice were challenged with MPA. […] The Id2 pathway is a second genetically confirmed down-stream pathway for RANKL/RANK in mammary epithelial cells^17. To extend these findings to human, human SKBR3 breast tumor cells were assayed. […] To further test the effects of RANKL stimulation the ability of these cells to grow in an anchorage-independent manner was assessed, which correlates well with tumorigenicity in vivo^18.

[2] = system: human SKBR3 breast cancer cells; assay: Soft-Agar Colony Formation Assay; type: cell-based; settings: RANKL (1 μg/ml), 18 days in culture
Experimental: a, Western blotting for phosphorylated (P) IKKα, total IKKα, phosphorylated (P) p65 NFκB, total p65 NFκB, phosphorylated (P) IκBα, and total IκBα in isolated primary mouse mammary gland epithelial cells (MECs) in response to RANKL stimulation (1 μg/ml). […] is shown as loading control. b, Western blotting for IKKα, IKKβ, IKKγ, phosphorylated (P) p65 NFκB, total p65 NFκB, phosphorylated (P) IκBα, and total IκBα in pooled late stage mammary adenocarconimas (n=4 for each lane) that developed in control, RANK^Δmam, and IKKα^Δmam females. β-actin is shown as loading control c, Expression of RANK, CyclinD1, and p21 mRNA in late stage mammary adenocacinomas that developed in control, RANK^Δmam, and IKKα^Δmam females. Expression was determined by qRT-PCR. Data are mean values+/−sem. n=4 per group. d, Soft-Agar Colony Formation Assay. Growth of human SKBR3 breast cancer cells in soft agar in response to stimulation with RANKL (1 μg/ml) or EGF (100 ng/ml). […] Apoptosis was detected by immunostaining for active Caspase 3. f, Apoptotic nuclei of epithelial cells (arrows) are shown for representative mammary gland sections. Magnifications ×40. g, Quantification of mammary epithelial apoptosis. A minimum of 5000 nuclei was counted for each mouse. […]

[3] = system: SKBR3 human breast cancer cells; assay: DNA damage responses (cell cycle arrest, apoptosis) in SKBR3 cells; type: cell-based; settings: RANKL 1 μg/ml
Experimental: a, Western Blot analysis for γH2AX, phosphorylated (P) Chk1, total Chk1, p53 and β-actin in isolated primary mouse mammary gland epithelial cells in response to γ-irradiation (2 Gray) in the presence (1 μg/ml) or absence of RANKL stimulation. b,c, FACS analysis of propidium iodide (PI) stained b, mammary epithelial cells and c, SKBR3 human breast cancer cells after γ-irradiation (2 Gray) in the absence or presence (1 μg/ml) of RANKL. Data are representative of at least 3 experiments. Apoptotic cells with a DNA content <2n appear in the sub-G1 region. Percent of cells in sub-G1 (M1), G1-phase (M2), S/G2/M-phase (M3) as well as polyploid cells with a DNA content >4n are given for the indicated time points.
a,b, FACS analysis of a, mammary epithelial cells and b, SKBR3 human breast cancer cells incubated with the genotoxic agent doxorubicin (Dox, 1 μM) in the presence (1 μg/ml) or absence of RANKL. Data are representative of at least 3 experiments. Percent of cells in sub-G1 (M1), G1-phase (M2), S/G2/M-phase (M3) as well as polyploid cells with a DNA content >4n are given for 24 and 36 hours after doxorubicin treatment. c, mRNA expression of pro-apoptotic genes Bim, Puma, and Noxa 6 hours after γ-irradiation (2 Gray) in the presence (1 μg/ml) or absence of RANKL stimulation. Data are shown as fold change compared to control (+/−sem). n=3). *P<0.05; **P<0.005 (Student's t-test).
For measurement of cell cycle arrest and apoptosis primary mouse mammary epithelial cells and SKBR3 human breast cancer cells were seeded at a cell-density of 100000 cells/well in a 6-well plate and allowed to grow for 24 hours. Cells where then treated with doxorubicin (1 μM) or γ-irradiation (2 Gray) in the absence or presence of recombinant RANKL (1 μg/ml). Cell cycle arrest and numbers of dead cells were determined using propidium iodine staining. To determine in vivo mammary gland epithelial cell death, control and RANK^Δmam littermate females were γ-irradiated with a total dose of 5 Gray (Gy). Six hours later, mammary glands were isolated and immunostained for active Caspase 3 (Cell Signaling) indicative of apoptosis.

In the case of `CC(=O)O[C@]1(C(C)=O)CC[C@H]2[C@@H]3C[C@H](C)C4=CC(=O)CC[C@]4(C)[C@H]3CC[C@@]21C` [MPA, medroxyprogesterone acetate], the “nuclear phosphorylated IκBα and CyclinD1 protein expression” value ([1]; RANK^Δmam female) is reported as “severely reduced”, the “CyclinD1 protein expression in mammary epithelial cells” value ([1]; control females) is reported as “induction of CyclinD1 protein expression” and the “nuclear phosphorylated IκBα in mammary epithelial cells” value ([1]; control females) is reported as “nuclear accumulation of phosphorylated IκBα”.

B1: RANKL: Receptor Activator of NF-κB Ligand; recombinant murine RANKL used for stimulation (protein, UniProt O35235 139-316, looked up)
Tumor necrosis factor ligand …: FSGAPAMMEGSWLDVAQRGKPEAQPFAHLTINAASIPSGSHKVTLSSWYHDRGWAKISNMTLSNGKLRVNQDGFYYLYANICFRHHETSGSVPTDYLQLMVYVVKTSIKIPSSHNLMKGGSTKNWSGNSEFHFYSINVGGFFKLRAGEEISIQVSNPSLLDPDQDATYFGAFKVQDID
In the case of B1, the “anchorage-independent growth in soft agar” value [2] is reported as “induced growth of SKBR3 cells in soft agar; also recorded: macroscopic colonies formed”, the “cell death after DNA damage” value ([3]; doxorubicin (1 μM)) is reported as “marked protection from cell death” and the “early cell cycle arrest after DNA damage” value ([3]; doxorubicin (1 μM)) is reported as “did not alter”. The “cell death after DNA damage” value ([3]; γ-irradiation (2 Gray)) was “marked protection from cell death” and the “early cell cycle arrest after DNA damage” value ([3]; γ-irradiation (2 Gray)) was “did not alter”.
